In assay [1] the target is transmembrane proteins of the replication complex. The assay is described as follows: cell-based or functional assay.
The target is the same in assay [2]. The assay is described as follows: cell-based or functional assay. The source holds these as a separate data set.

Like-named read-outs stand apart in the source and are kept apart here.

In assay [1], “DEN2 NS1 F160A (from UniProt P29990 776-1127)” came in with a Plaque size of 1 mm and a Titer (PFU/mL) of 6000 PFU/mL.

B1: Dengue virus type 2 (DEN2; 16681) nonstructural protein 1 (NS1), recombinant, full-length, glycosylated, P29990 776-1127 (protein)
chain: DSGCVVSWKNKELKCGSGIFITDNVHTWTEQYKFQPESPSKLASAIQKAHEEGICGIRSVTRLENLMWKQITPELNHILSENEVKLTIMTGDIKGIMQAGKRSLRPQPTELKYSWKTWGKAKMLSTESHNQTFLIDGPETAECPNTNRAWNSLEVEDYGFGVFTTNIWLKLKEKQDVFCDSKLMSAAIKDNRAVHADMGYWIESALNDTWKIEKASFIEVKNCHWPKSHTLWSNGVLESEMIIPKNLAGPVSQHNYRPGYHTQITGPWHLGKLEMDFDFCDGTTVVVTEDCGNRGPSLRTTTASGKLITEWCCRSCTLPPLRYRGEDGCWYGMEIRPLKEKEENLVNSLVTA
In assay [2], B1 came in with a Plaque size of 3 mm and a Titer (PFU/mL) of 4.8e+06 PFU/mL.

(Values after US20160317644A1.)
